{"source": "patent US20070031511A1", "about": "“Method of treatment” (priority 2003, published 2007)", "target": "Ggly receptor on IMGE-5 cells", "test": "cell-based or functional assay", "data": [{"substance": "pentapeptide E5", "values": [{"measurement": "ED50 (nM), proliferation of IMGE cells, thymidine uptake", "value": 1.4, "unit": "nM"}]}]}
